Data on five compounds can be found in patent US10500256B2, “Polymers for delivery of therapeutic proteins” (BOARD OF REGENTS, THE UNIVERSITY OF TEXAS SYSTEM, priority 2014, dated 2019).

Series [1] deals with Caco-2 monolayer. The conditions noted are these: cited from earlier work.
In series [2] the test system is Caco-2 monolayer. Kind of series: Transport across Caco-2 monolayer (literature data). In kind it is in vitro ADME, human. The conditions noted are these: over the 3 h average residence time, assuming constant permeability. An excerpt: Aside from limited delivery potential from the microparticle carriers, loss of bioavailability resulting from intestinal enzymatic degradation and low intestinal absorption should also be accounted for.
A general note: Caco-2 monolayers are a common model of the intestinal barrier.

The conditions of series [3]: in vivo absorption of compounds with similar Caco-2 permeability; cited from earlier work.
A short description of series [4]: Loading and release of salmon calcitonin, urokinase and Rituxan from 1:2 P(IA-co-NVP) microparticles. In kind it is physicochemical. As to conditions: 3 mol % TEGDMA; for Loading Level: protein loading solution 200 μg/mL; for Percent Release, t = 24 h / Protein Released, t = 24 h: t=0-1 h pH 3, then pH 7.4. An excerpt: In an additional experiment, the loading and release of urokinase was also compared to that of sCT and rituximab using P(IA-co-NVP) microparticles synthesized with a monomer ratio of 1:2 IA to NVP. This experiment utilized urokinase as another high pI protein (pI=8.66) with a molecular weight (54.0 kDa) between that of salmon calcitonin (3.4 kDa) and rituximab (144 kDa), allowing us to see the effects across a range of sizes, rather than just two endpoints. Urokinase is used clinically as a thrombolytic agent for myocardial infarction, pulmonary embolism, and deep vein thrombosis.
This difference arises from two results. First, the hydrogels used in this experiment were crosslinked using 3 mol % TEGDMA in the monomer feed. […] Further, this experiment utilized loading solutions of proteins at only 200 μg/mL, rather than at 400 μg/mL as was used in the preceding experiment. […] With lower loading levels comes both lower overall delivery and lower percent release, as the lower loading level means less protein to be released even at 100% efficiency and, since concentration difference is the driving force for diffusion, less entropic gain due to diffusive release which therefore shifts the equilibrium toward coulombic binding rather than diffusive release.

As to 1-deamino-8-D-arginine-vasopressin, in the series on Caco-2 monolayer [1] (Caco-2), the “Apparent permeability in Caco-2 cultures” value is given as 1.3×10^−7.
Take `CC(C)C[C@H](NC(=O)[C@H](CCCCN)NC(=O)CNC(=O)[C@H](CC(C)C)NC(=O)[C@@H](NC(=O)[C@@H]1CSSC[C@H](N)C(=O)N[C@@H](CO)C(=O)N[C@@H](CC(N)=O)C(=O)N[C@@H](CC(C)C)C(=O)N[C@@H](CO)C(=O)N[C@@H]([C@@H](C)O)C(=O)N1)C(C)C)C(=O)N[C@@H](CO)C(=O)N[C@@H](CCC(N)=O)C(=O)N[C@@H](CCC(=O)O)C(=O)N[C@@H](CC(C)C)C(=O)N[C@@H](Cc1c[nH]cn1)C(=O)N[C@@H](CCCCN)C(=O)N[C@@H](CC(C)C)C(=O)N[C@@H](CCC(N)=O)C(=O)N[C@H](C(=O)N[C@@H](Cc1ccc(O)cc1)C(=O)N1CCC[C@H]1C(=O)N[C@@H](CCCNC(=N)N)C(=O)N[C@H](C(=O)N[C@@H](CC(N)=O)C(=O)N[C@H](C(=O)NCC(=O)N[C@@H](CO)C(=O)NCC(=O)N[C@H](C(=O)N1CCC[C@H]1C(N)=O)[C@@H](C)O)[C@@H](C)O)[C@@H](C)O)[C@@H](C)O` [Salmon Calcitonin]: in the series on Caco-2 monolayer [2], the “Fraction expected to be transported across the intestinal epithelium” value is listed as 0.15%. Further, the “Fraction transported across a Caco-2 monolayer” value in the series on Caco-2 monolayer [1] (in vitro, over 60 min, Youn et al. (2006)) is 0.05%.
Regarding `COc1cccc2c1C(=O)c1c(O)c3c(c(O)c1C2=O)C[C@@](O)(C(=O)CO)C[C@@H]3O[C@H]1C[C@H](N)[C@H](O)[C@H](C)O1` [doxorubicin], the Absorption in series [3] is 5%.
“Rituxan: large monoclonal antibody rituximab (144 kDa)”: in series [4], the “Loading Level” value amounted to 24.1 ± 1.5 μg/mg hydrogel; the “Percent Release, t = 24 h” value was determined as 20.0 ± 3.6%; the “Protein Released, t = 24 h” value is on record as 4.8 ± 1.1 μg/mg hydrogel. Further, in series [4] (listed as rituximab), the “Loading Level” value is given as 24.1 μg/mg hydrogel.
In the case of Urokinase, in series [4], the “Loading Level” value stood at 19.0 ± 1.1 μg/mg hydrogel; the “Percent Release, t = 24 h” value was 14.2 ± 3.2%; the “Protein Released, t = 24 h” value turned out to be 2.7 ± 0.5 μg/mg hydrogel. In addition, the “Loading Level” value in series [4] (listed as urokinase) is on record as 19.0 μg/mg hydrogel.
